This passage reports stoichiometry N results from PMC3299299, “Recombinant Expression and Characterization of Human and Murine ACE2: Species-Specific Activation of the Alternative Renin-Angiotensin-System” (International Journal of Hypertension, 2012).

The target in the experiment is T1, recombinant murine ACE2 (angiotensin-converting enzyme 2), extracellular domain (murine), Q8R0I0.
T1 chain: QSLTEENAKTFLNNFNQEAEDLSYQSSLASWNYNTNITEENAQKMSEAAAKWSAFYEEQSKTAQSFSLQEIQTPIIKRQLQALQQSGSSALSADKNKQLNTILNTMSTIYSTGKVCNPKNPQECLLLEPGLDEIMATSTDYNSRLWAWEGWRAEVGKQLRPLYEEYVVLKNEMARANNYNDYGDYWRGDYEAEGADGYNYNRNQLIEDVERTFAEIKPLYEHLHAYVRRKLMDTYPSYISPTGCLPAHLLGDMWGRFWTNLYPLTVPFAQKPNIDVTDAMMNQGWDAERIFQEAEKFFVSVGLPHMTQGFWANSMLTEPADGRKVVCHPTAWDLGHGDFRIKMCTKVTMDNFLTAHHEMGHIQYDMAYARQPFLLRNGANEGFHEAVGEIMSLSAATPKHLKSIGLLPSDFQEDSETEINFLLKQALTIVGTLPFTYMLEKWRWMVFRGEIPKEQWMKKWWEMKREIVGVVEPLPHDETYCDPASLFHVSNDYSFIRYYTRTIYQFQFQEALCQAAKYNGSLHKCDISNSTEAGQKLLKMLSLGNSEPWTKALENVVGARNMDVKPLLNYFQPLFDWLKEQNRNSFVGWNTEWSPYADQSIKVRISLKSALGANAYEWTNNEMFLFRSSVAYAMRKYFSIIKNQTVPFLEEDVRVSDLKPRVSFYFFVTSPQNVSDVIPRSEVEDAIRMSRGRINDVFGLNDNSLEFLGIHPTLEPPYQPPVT
The experiment is described as follows: native gel or EMSA; native PAGE, 2 ug protein on a precast native 3-12% gradient gel, Bis/Tris-Tricine buffers, 150 V for 80 min, Coomassie stain; single band at approximately 170 kDa; monomer to dimer. The settings on record: remark: other sources report otherwise. On the technique in general: In EMSA bound probe runs differently from free probe, usually more slowly.

B1: recombinant murine ACE2 (angiotensin-converting enzyme 2), extracellular domain, Q8R0I0 18-740 (enzyme)
chain: T1 chain
Usually stoichiometry N stands for the number of molecules, sites or subunits per partner or assembly. Regarding B1, the stoichiometry N came to 2.
